± gives the uncertainty stated by the source.
B1: Tesmin, residues 368 to 403; numbered along this chain, Q9Y4I5 (parent)
chain: KGCNCRRSGCLKNYCECYEAQIMCSSICKCIGCKNY

Variants of: B1
Experiment: abundance fitness (aPCA) (normalised: wild type 0, dead -1); higher = more abundant; growth selection in yeast, the domain comes from the species named
Conditions: Homo sapiens

Variant	abundance fitness
KGHNCRRSGCLKNYCECYEAQIMCSSICKCIGCKNY [C3H]	-0.363 ± 0.21
KGYNCRRSGCLKNYCECYEAQIMCSSICKCIGCKNY [C3Y]	-0.056 ± 0.27
KGSNCRRSGCLKNYCECYEAQIMCSSICKCIGCKNY [C3S]	-0.702 ± 0.11
KGKNCRRSGCLKNYCECYEAQIMCSSICKCIGCKNY [C3K]	-0.115 ± 0.11
KGLNCRRSGCLKNYCECYEAQIMCSSICKCIGCKNY [C3L]	-0.677 ± 0.081
KGWNCRRSGCLKNYCECYEAQIMCSSICKCIGCKNY [C3W]	-0.624 ± 0.091
KGCNCRTSGCLKNYCECYEAQIMCSSICKCIGCKNY [R7T]	0.047 ± 0.14
KGCNCRASGCLKNYCECYEAQIMCSSICKCIGCKNY [R7A]	0.248 ± 0.075
KGCNCRGSGCLKNYCECYEAQIMCSSICKCIGCKNY [R7G]	0.268 ± 0.073
KGCNCQRSGCLKNYCECYEAQIMCSSICKCIGCKNY [R6Q]	0.338 ± 0.1
KGCNCERSGCLKNYCECYEAQIMCSSICKCIGCKNY [R6E]	0.214 ± 0.1
KGCNCGRSGCLKNYCECYEAQIMCSSICKCIGCKNY [R6G]	0.151 ± 0.073
KGCNCFRSGCLKNYCECYEAQIMCSSICKCIGCKNY [R6F]	-0.169 ± 0.19
KGCNCRRSGCLKNYIECYEAQIMCSSICKCIGCKNY [C15I]	-0.809 ± 0.15
KGCNCRRSGCLKNYSECYEAQIMCSSICKCIGCKNY [C15S]	-0.596 ± 0.11
KGCNCRRSGCLKNYFECYEAQIMCSSICKCIGCKNY [C15F]	-0.742 ± 0.13
KGCNCRRSGCLKNYMECYEAQIMCSSICKCIGCKNY [C15M]	-0.689 ± 0.12
KGCNCRRSGCLKNYCECYEAQIMPSSICKCIGCKNY [C24P]	-0.21 ± 0.1
KGCNCRRSGCLKNYCECYEAQIMVSSICKCIGCKNY [C24V]	-0.421 ± 0.088
KGCNCRRSGCLKNYCECYEAQIMKSSICKCIGCKNY [C24K]	0.262 ± 0.28
KGCNCRRSGCLKNYCECYEAQIMASSICKCIGCKNY [C24A]	-0.15 ± 0.079
KGCNCRRSGCLKNYCECYEAQIMESSICKCIGCKNY [C24E]	0.051 ± 0.096
KGCNCRRSGCLKNYCECYEAQIPCSSICKCIGCKNY [M23P]	-0.136 ± 0.14

Variant	abundance fitness
KGCNCRRSGCLKNYCECYEAQIWCSSICKCIGCKNY [M23W]	-0.283 ± 0.14
KGCNCRRSGCLKNYCECYEAQIACSSICKCIGCKNY [M23A]	-0.18 ± 0.079
KGCNCRRSGCLKNYCECYEAQIDCSSICKCIGCKNY [M23D]	0.152 ± 0.1
KGCNCRRSGCLKNYCECYEAQIMCSSICKCIECKNY [G32E]	-0.033 ± 0.11
KGCNCRRSGCLKNYCECYEAQIMCSSICKCIVCKNY [G32V]	-0.443 ± 0.094
KGCNCRRSGCLKNYCECYEAQIMCSSICKCIRCKNY [G32R]	-0.249 ± 0.082
KGCNCRRSGRLKNYCECYEAQIMCSSICKCIGCKNY [C10R]	-0.539 ± 0.071
KGCNCRRSGNLKNYCECYEAQIMCSSICKCIGCKNY [C10N]	-0.405 ± 0.11
KGCNCRRSGILKNYCECYEAQIMCSSICKCIGCKNY [C10I]	-1.37 ± 0.47
KGCNCRRSGSLKNYCECYEAQIMCSSICKCIGCKNY [C10S]	-0.213 ± 0.078
KGCNCRRSGQLKNYCECYEAQIMCSSICKCIGCKNY [C10Q]	-0.208 ± 0.086
KGCNCRRSGELKNYCECYEAQIMCSSICKCIGCKNY [C10E]	0.004 ± 0.076
KGCNCRRHGCLKNYCECYEAQIMCSSICKCIGCKNY [S8H]	-0.461 ± 0.17
KGCNCRRIGCLKNYCECYEAQIMCSSICKCIGCKNY [S8I]	0.19 ± 0.37
KGCNCRRMGCLKNYCECYEAQIMCSSICKCIGCKNY [S8M]	-0.343 ± 0.12
KGCNCRRWGCLKNYCECYEAQIMCSSICKCIGCKNY [S8W]	-0.527 ± 0.095
KGCNCRRFGCLKNYCECYEAQIMCSSICKCIGCKNY [S8F]	-0.399 ± 0.15
KGCNCRRQGCLKNYCECYEAQIMCSSICKCIGCKNY [S8Q]	-0.063 ± 0.11
KGCNCRRSGCLKNYCECYEAQIMCSSIYKCIGCKNY [C28Y]	-0.973 ± 0.2
KGCNCRRSGCLKNYCECYEAQIMCSSIQKCIGCKNY [C28Q]	-0.564 ± 0.14
KGCNCRRSGCLKNYCECYEAQIMCSSIRKCIGCKNY [C28R]	-0.575 ± 0.07
KGCNCRRSGCLKNYCECYEAQIMCSGICKCIGCKNY [S26G]	0.089 ± 0.073
KGCNCRRSGCLKNYCECYEAQIMCSEICKCIGCKNY [S26E]	0.228 ± 0.11

Variant	abundance fitness
KGCNCRRSGCLKNYCECIEAQIMCSSICKCIGCKNY [Y18I]	-0.318 ± 0.14
KGCNCRRSGCLKNYCECLEAQIMCSSICKCIGCKNY [Y18L]	-0.353 ± 0.078
KGCNCRRSGCLKNYCECSEAQIMCSSICKCIGCKNY [Y18S]	-0.059 ± 0.076
KGCNCRRSGCLKNYCECTEAQIMCSSICKCIGCKNY [Y18T]	-0.082 ± 0.13
KGCNCRRSGCLKNYCEPYEAQIMCSSICKCIGCKNY [C17P]	-0.312 ± 0.082
KGCNCRRSGCLKNYCEVYEAQIMCSSICKCIGCKNY [C17V]	-0.415 ± 0.079
KWCNCRRSGCLKNYCECYEAQIMCSSICKCIGCKNY [G2W]	-0.674 ± 0.14
KGCNCRRSGCTKNYCECYEAQIMCSSICKCIGCKNY [L11T]	-0.079 ± 0.092
KGCNCRRSGCGKNYCECYEAQIMCSSICKCIGCKNY [L11G]	-0.064 ± 0.067
KGCNCRRSGCNKNYCECYEAQIMCSSICKCIGCKNY [L11N]	-0.243 ± 0.45
KGCNCRRSGCRKNYCECYEAQIMCSSICKCIGCKNY [L11R]	-0.344 ± 0.07
KGCNCRRSGCLKNYCECYEAQIMCSSICKCIGCKNP [Y36P]	0.31 ± 0.095
KGCNCRRSGCLKNYCECYEAQIMCSSICKCIGCKNI [Y36I]	0.371 ± 0.13
KGCNCRRSGCLKNYCECYEAQIMCSSICKCIGCKNV [Y36V]	0.286 ± 0.1
KGCNCRRSGCLKNYCECYEALIMCSSICKCIGCKNY [Q21L]	-0.26 ± 0.085
KGCNCRRSGCLKNYCECYEAAIMCSSICKCIGCKNY [Q21A]	-0.127 ± 0.092
KGCLCRRSGCLKNYCECYEAQIMCSSICKCIGCKNY [N4L]	-0.207 ± 0.077
KGCECRRSGCLKNYCECYEAQIMCSSICKCIGCKNY [N4E]	-0.056 ± 0.082
KGCSCRRSGCLKNYCECYEAQIMCSSICKCIGCKNY [N4S]	-0.103 ± 0.093
KGCVCRRSGCLKNYCECYEAQIMCSSICKCIGCKNY [N4V]	-1.13 ± 0.1
KGCKCRRSGCLKNYCECYEAQIMCSSICKCIGCKNY [N4K]	-0.314 ± 0.15
KGCNCRRSGCLKNYCECYEAQIMCSSICKCRGCKNY [I31R]	0.056 ± 0.067

Reference: the Human Domainome abundance scans (Beltran et al. 2025)
